Target: the molecule itself
Experiment: cryo-EM structure

B1: human ABCG2 E211Q mutant (ABCG2EQ) (natural protein)
chain: MSSSNVEVFIPVSQGNTNGFPATASNDLKAFTEGAVLSFHNICYRVKLKSGFLPCRKPVEKEILSNINGIMKPGLNAILGPTGGGKSSLLDVLAARKDPSGLSGDVLINGAPRPANFKCNSGYVVQDDVVMGTLTVRENLQFSAALRLATTMTNHEKNERINRVIQELGLDKVADSKVGTQFIRGVSGGERKRTSIGMELITDPSILFLDQPTTGLDSSTANAVLLLLKRMSKQGRTIIFSIHQPRYSIFKLFDSLTLLASGRLMFHGPAQEALGYFESAGYHCEAYNNPADFFLDIINGDSTAVALNREEDFKATEIIEPSKQDKPLIEKLAEIYVNSSFYKETKAELHQLSGGEKKKKITVFKEISYTTSFCHQLRWVSKRSFKNLLGNPQASIAQIIVTVVLGLVIGAIYFGLKNDSTGIQNRAGVLFFLTTNQCFSSVSAVELFVVEKKLFIHEYISGYYRVSSYFLGKLLSDLLPMRMLPSIIFTCIVYFMLGLKPKADAFFVMMFTLMMVAYSASSMALAIAAGQSVVSVATLLMTICFVFMMIFSGLLVNLTTIASWLSWLQYFSIPRYGFTALQHNEFLGQNFCPGLNATGNNPCNYATCTGEEYLVKQGIDLSPWGLWKNHVALACMIVIFLTIAYLKLLFLKKYS
- binding result: binds

From paper PMC6379061 (Nature, 2018)
